# Measurements: patent US20230242902A1, “A HIGHLY ERROR-PRONE […] R[…] FOR TARGETED CONTINUOUS EVOLUTION IN VIVO” (The Regents of the University of California, priority 2017, published 2023)
# Tested on: p2
# Test: p2 copy number by mKate2 fluorescence calibrated with qPCR
# Assay type: cell-based, S. cerevisiae
# Details: GA-Y021
# Protocol: To precisely measure p1 and p2 per-base substitution mutation rates, several modifications were made to the small-scale protocol. First, 36 replicates were performed for reconfirmation of candidate TP-DNAP2 mutators, and 48 replicates for genomic and mutual orthogonality experiments. Titers were also determined for each strain after spot plating by pooling the residual volume from 4 replicates and plating dilutions on YPD. The expected number of LEU2 functional mutants (m) was determined by the Ma-Sandri-Sarkar maximum likelihood estimator (as calculated by the FALCOR tool and corrected for partial plating (Foster, 2006, Methods Enzymol, 409:195-213; Sarkar et al., 1992, Genetica, 85:173-179; Hall et al., 2009, Bioinformatics, 25:1564-1565). The mean mKate2 fluorescence was determined from 50,000 event counts on Attune™ NxT Flow Cytometer and converted to p2 copy number by using a calibration curve. To determine per-base substitution rates, the corrected m was normalized to the average cell titer, the p2 copy number, and the target size for functional leu2* reversion (2.33 bp). […]
# A standard curve relating p2 copy number to mKate2 fluorescence was prepared by combining quantitative PCR with flow cytometry. […] All extracts were diluted 4000-fold for use in two distinct qPCR reactions, one to quantify p2-encoded leu2* and the other to quantify the genomic copy of LEU3. […]
molecule,measurement,value
"WT: wild-type Kluyveromyces lactis DNA polymerase TP-DNAP2, SEQ ID NO:13 (protein, listed as Kluyveromyces lactis) MNDELAFLNSQIDDYSDDIEFLRTEVFRINRYSKSIYSLMKNSSKEAIKETIEFNKYGQEIHSKIKEKEISLIEAIKLMEKKYKYLRSLNKTKDKSKKKKIHTKDIETLKTIYKTKADFDIRNFKNAETFTYENYSLLIPSEKELIDLIPEIEEDYSYYFYVSLTITGPTIFGGVTRKVPIIDTYGDINKDFYNKIKENITKVLDRVPFYEEKESEIICKKVLITLTVNKWESIDKWYKNVKSKSKKFKDFTLFLASDTSKNCVQQCVEYLGGKWNTNYSLEKMIPQQKIVTYIPLLMDIQYVQSMEDLISDFDEPNTDCKNIARLLKWNGHMGVITKIDKDVKINRIQRKRIIDVENKEVKEVFFDIESFSDETKHQIPYLICWSYLGELYYRTGKNCIKEFVEEILSYNVDIILYAWYGSGYDYQHVLPYMKSKCIKDKYIIKNNMITYGELYYENAIIYLKDPYLFILTSLDKASKAFNVINKGEFPHSIIHSWEDLNKILPNWVKIQKRMIEYKDDNKLNIYYKNIEIFENDRNYNTILENAIEYCKVDVLAMEKVWIKFKKLLEKNLNITVSVKTFTLSQLSMKIMESKLPKYVKLYVPTLEEYSKIRNAIYGGRVISKNGIYEENIVYADVVSLYPSAMKLLKHSYGKPKLVDYIDFEKHGIYRVTLLNKHDQEPKNYLNFVPRRINRKLTWEWFKIHEGWYHTYDLIIAKSEGFDIYCHEGFEYPEKDYIFNDFIDTLYSMKETHTACSCEEQPCPIRMVAKIALNGGGYGKFVQKPIDKEIYIVKRDVVAGECDKLQENENGEICIGKRLVKRPLFYNLDSENYDKMIIEKEDEPIYSTQCGISILSASRYRLYKLCKQFENIDIIYSDTDSIFVKQKSVDWELFKSKCGSELGQLDSTIDDTKNAIISKMYIGGAKMYAFEYLNNKNKLITKLHCKGVPNYMLSLNQFKYLMESPDNTIAYKFEIIRRKLVNVITKDLIKDIKQT",p2 copy number per cell,128
